B1: monoclonal antibody 3D10 (antibody, V domains shown)
VH: QVQLKQSGPGLVQPSQSLSIICTVSGFSLTRNGVHWVRQSPGKGLEWVGVIWRSGRTDYDAAFMSRLSITKDNSKSQVFFKMNSLQADDTAIYYCVKNGDDGNYGTYWGQGTLVTVSA
VL: DIVMSQSPSSLGVSVGEKVTMSCKSSQSLLDSRNQKNYLAWYQQKPGQSPKLLIYWASTRESGVPDRFTGSGSGTEFTLTISSVKAEDLAIYYCQQYYNYPYTFGGGTKLEIT
B2: monoclonal antibody 9G11 (antibody, V domains shown)
VH: QVQLKQSGPGLVQPSQSLSITCTVSGFSLTRNGVHWVRQSPGKGLEWVGVIWRGGRTDYDAAFMSRLSITKDNSKSQVFFKMNSLQADDTAIYYCVKNGDDGNYGTYWGQGTLVTVSA
VL: DIVMSQSPSSLGVSVGEKVTMSCKSSQSLLDSRNQKNYLAWYQQKPGQSPKLLIYWASTRESGVPDRFTGSGSGTEFTLTISSVKAEDLAIYYCQQYYNYPYTFGGGTKLEIT
B3: monoclonal antibody 1D9 (antibody, V domains shown)
VH: QVQLKQSGRSLVQPSQSLSITCTVSGFSLTDYGVHWIRQSPGKGLEWLGVIWRSGRTDYNAVFMSRLSITKDNSKSQVFFKMNGLQTDDTAIYYCAKNGPFGNFAGYWGQGTPVAVSA
VL: DIVMSQSPSSLAVSVGEKVTMRCRSSQSLLDSYHQKNYLAWYLQKPGQSPKLLIYWASTRESGVPDRFTGSGSGTDFTLTISSVKAEDLAVYYCQEYYRYPYTFGGGTKLEIK
B4: monoclonal antibody 4A4 (antibody, V domains shown)
VH: QVQLKQSGRSLVQPSQSLSITCTVSGFSLTDYGVHWIRQSPGKGLEWLGVIWRSGRTDYNAVFMSRLSITKDNSKSQVFFKMNGLLIEDTAIYYCAKNGPFGNFAGYWGQGTPVAVSA
VL: DIVMSQSPSSLAVSVGEKVTMRCRSSQSLLDSYHQKNYLAWYLQKPGQSPKLLIYWASTRESGVPDRFTGSGSGTDFTLTISSVKAEDLAAYYCQEYYRYPYTFGGGTKLEIK
B5: monoclonal antibody 11E11 (antibody, V domains shown)
VH: QVQLKQSGPSLVQPSQSLSITCTVSGFSLTNYGVHWIRQSPGKGLEWLGVKWRGGRTDYNAAFMSRLSITRDNSRSQVFFKMNSLQTDDTAIYYCAKNGPFGNFAGYWGQGTLVTVSA
VL: DIVMSQSPSSLAVSVGEKVSLTCKSSQSLLDNQKHYLAWYQQKPGQSPKLLIYWASTRESGVPDRFTGSGSGTEFTLTISSVKAEDLAVYYCQQFYNYPYTFGGGTKLEIK
B6: monoclonal antibody 40H3 (antibody, V domains shown)
VH: QVQLKQSGPGLVQPSQSLSITCTVSGFSLTNYGIHWLRQSPGKGLEWLGMMWRGGGTDYNAAFISRLTITKDTSKSQVFFRMNNLQTNDTAIYYCARKGVGMGLGYWGQGTSVTVSS
VL: DIQMTQSPASQSASLGESVTITCLASQTIGTWVAWYQQKPGRSPQLLIYGATNLADGVPSRFSGSGSGTKFSFKISSLQAEDFVSYYCQQLYSNPYTFGGGTKLEIK
B7: monoclonal antibody 11G3 (antibody, V domains shown)
VH: QVQLKQSGPSLVQPSQSLSITCTVSGFSLTNYGVHWVRQSPGKGLEWLGVMWRGGRTDYNAAFMSRLSITKDNSRSQVFFKMNSLQTDDAAIYYCAKNGPFGNFAGYWGQGTLVTVST
VL: DIVMSQSPSSLPVSVGEKVSLTCKSSRSLLDNQKHYLAWYQQKPGQSPKLLIYWASTRESGVPDRFTGSGSGTEFTLTISSVKAEDLAVYYCQQFYNYPYTFGGGTKLEIK

What was measured:
[1] = target: wtEGFR at physiological levels on WI-38 cells (human (endogenous in WI-38)) (UniProt P00533); assay: […], FACS buffer
[2] = target: human wtEGFR on F98_(EGFR) cells (human) (UniProt P00533); assay: […], FACS buffer

| Binder | median fluorescence intensity [1] [units] | median fluorescence intensity [2] [units] |
| --- | --- | --- |
| B1 | < 100 |  |
| B2 | < 100 |  |
| B3 | < 100 |  |
| B4 | < 100 |  |
| B5 | < 100 |  |
| B6 | < 100 | 187 |
| B7 | < 100 |  |
